Experiment: soluble on expression in E. coli; label from the status in PepcDB or PDB records

Soluble on expression in E. coli, not soluble:
MGSDKIHHHHHHMEKEIKNIIEMRHIVKDFNGFKANNDINLTLRKGEILALLGENGAGKSTLMSILSGLLEPTSGEIYVRGEKVNISGPNVATSLGIGMVHQHFMLAQAFTVLENIILGHETTKGLALDFKTAREKILALSKQYGLAIDPDAKISDITVAQQQRVEILKVLYRGADILIFDEPTAVLTPQEITEFIKIMKNLAKEGKSIILITHKLKEIKESADRVTVIRAGKSIQTVSVADANDEQLAEMMVGHHVNFKLDKAPLNLGKNILEVKDLHVNEDRGTDAVKGLSFNIRGGEILGLAGIDGNGQDELVEAITGLRHVEGGQVVINGQDLTNKPVRQITEAGVGHIPADRQKYGLILQLPLSENIASQTYYKEPYSKHGIMNEQTIREHARELIKKFDVRTTSEQLPASDLSGGNQQKAIIARELDRDADLIIAFQPTRGLDVGAIEYIHSQLLKQRDAGKAVLLVSYELDEILQLSDRIVVLHDGAESGEVKPDQTSETELGLLMTGKNTKKEAAAND, MGSDKIHHHHHHMEKKFNLENYLSYGVQNIVKGIIKSTLSNPKESLFMAKYSIASKNAIKLRAEADKIGEHVPPFLIASITSKCNLHCKGCYARHVNSCTDEKTVNQLTDEDWRRVFYEAKDIGVGFILLLGGEPLMRPNVIKIAGEIEDILFPIFTNGTMIDEKYIKLFQKYRNLIPIFSIEGNESNTDKRRGTGIYSEIIKKMNEAYENKIIYGASITVTKENIEEVTSEKFLDKLYSRGCKSVIYVEYVPVSEKEKKIALEGKEREFLKDKLVELRYKYEDILFISFPGDEKSSGGCLAAGRGFFHINFNGGVEPCPFSPYSDTNLKDLSLKEAMNSPLFRKLRKDNVLMEEHSGGCVLFEKEDIVQSLLQK, MGSDKIHHHHHHMEKTLVIEHDGEKAVVWETPQIFSENDYDYEVLEKALENTGGPLKEWRKKKYQEYKEWGFPRWKRCNLDGMSLPELSFKRIDLDVDISLLEKLDFEGAHRKFVLLGDTFFTDFRVYGDGKHMMRFDGDGIENVLVVVEKEAEIYKLSSTDRFRNTVMRILVKKNASLKFFNLDFFGNFSFDNVFIVLEEGARLVLRDFKAFGYRKTGHILVKLNKSSKADMKSFFYQNGSGITDLLYLMRFEGEDAEGKLKGNGVVDGAGKIVFRGILDVKRGSKNIVAEETEHTLVLSPDARMDAIPSLWVDENDVTASHSASSSSLDEDELFYLMTRGVDEIESKKLIVRGVFNELLDELDESVKGEVENVVNRIV, MGSDKIHHHHHHMELHIRLEGRKGLADQLYQQLRDGIDSGHLAAGSQLPPTRLLAEQLGVSRKTVAEAYSRLTYDNLLSGVVGRGTFVTPRHPLRSNESATLPLAGAASLERWQQRATVLSQRQLQAPSRYDFVGGASSKAQFPFDQWRSCLNYALRRSQRHPERQFPAQGLPELREAIAHHIAYSRGVHCSAADLLVCNGAQQALDLIARVLVEPGCQVAMEDPGYPPARQLFLALGARLQSVPVDDEGLCVEQIADGTRLIYVTPSHQFPLGMPMSEPRRHALLARAAELGALIIEDDYDCEFRYHGPASDALQRLDRHGLVAYVGTFSKTLLPELRLGYAVLPPAVLQAACVAKHLSDWHSPTLLQWALARFLGEGHLNKHIRRCHEVYSARRERILARLGGDLAPWFSAIPASAGFHLSALATPGVDVELLANLARKVEVGLYSLAPFFSEAPVRPGLLMGFGAIELLDIDPALDRVRDTLQRLS, MGSDKIHHHHHHMELKLERHPANPILEPSPYFLWESRFVFNPAVVYDGELFHLLYRAQGEDMVSRIGYAVSTDGIHFNKFEKPVFAPKSDDELYGVEDPRITKIGDEYYMVYTAYSPRGVRIAMASTKNFITWKRYGVVIPEVDNKDAALFPEKINGKYVMFHRIPPDMWLAFSDDLVHWDNFVKIASPRPGMWDDLKIGVGAPPIKTEYGWLVLYHGVQNTGTSRPIYRLGFMLLDLEDPTKVIKRSKEPILEPEEDWEKFGGVPNVVFSDAMIEYNGYYYVYYGAADNCIALATIPVEKVMKWCRE, MGSDKIHHHHHHMELLNSMSKSLDQLLSLVNHSEIASIKATLSKIIEVIHNPESSVMDLKNLIEIDPPLAANVLRRANSAFYGMRRGIHSIMDAIIFIGFDAVKELTLNQKFFELFQKNGVEIHGYSRRVLWEHSIGVALCGKLIYRREFRKNGGDMYTAGLIHDIGIIVEDQFLHAELLSILADKEEHERDLHSAEADVLGYCHEDIGKRLAEDWNFPEELCLVLGEAERPETSEGPRLLLADTLYVANCACQLRKVGFSELGRLDRPAYEDCLNRLRIKERALDFIMDEVNAQIALMKNDGWF, MGSDKIHHHHHHMELNIPLVLQNKTPIYLQIYEYMKREISHGSLCAGTRLPSHRNLAMQLNVSRITVESAYQQLLAEGYVESKPKRGIFVAEVDIDVIQKKQQIVSNSANNKEKEQYDYDCSQGLIDQKAFPITNWKRALHETLFQYENELFAKEDPQGELVLREHISKYLYHARGVHSSPDQIIIGAGTQPLLWLLLQLLGSKKEYGIENPGFHRIPAMIQSSGLPVHPIPLDDKGIHISALRESGSNVAYVTPSHQFPLGIIMPLSRRLELLKWANDCKGYIVEDDYDGEFRYIGKPIPSLQGLDSNERVIYMGTFSKSFLPSLRMGYIVLPPHLLKTYKELGGMYKQTVSTMQQLTFATFIQSGDWERHINRSRTLYKRKHISLIKSITNEMGNNVHILGEQSGLHIVLHVHNGMNEQELIHAAAKQRIKLYPLSTYDSVHNVREESYVLLGFGSIPENRIETVVQLLKKAWFPK, MGSDKIHHHHHHMEMIMRPDRSLFIVEDDATFAKTLKRSFEKRDYDVVVCHGREDLLGALETAVPAYAVVDLKLGARGSGLECVKLLSARDTSMRIVVLTGFASIATAVEAIKLGACHYLAKPANTDDIEAAFGRAEGDVSVSLSSRPTSIKNLEWERIHETLVETGFNISETARRLGLHRRTLARKLEKRVVR, MGSDKIHHHHHHMEMLEEHRCFEGWQQRWRHDSSTLNCPMTFSIFLPPPRDHTPPPVLYWLSGLTCNDENFTTKAGAQRVAAELGIVLVMPDTSPRGEKVANDDGYDLGQGAGFYLNATQPPWATHYRMYDYLRDELPALVQSQFNVSDRCAISGHSMGGHGALIMALKNPGKYTSVSAFAPIVNPCSVPWGIKAFSSYLGEDKNAWLEWDSCALMYASNAQDAIPTLIDQGDNDQFLADQLQPAVLAEAARQKAWPMTLRIQPGYDHSYYFIASFIEDHLRFHAQYLLK, MGSDKIHHHHHHMENIVELINVTKTFKDFSINKMDLQVKKGFVTGFIGANGAGKSTTIKMMMNLLKPDDGEVKLFGMDYTTHEKAIKERIGFVYDGNVFFEGLNLKDIKHIVGPAYKRWDDTLFYQYVDKFELPLNKAIKTFSKGMQMKASLAIALSHHAELIIMDEPTAGLDPIFRRELLDILQELMIDNDRTIFFSTHITTDLDRIADYIAFMQGGNLVFNQSIHDIDENYALVKGGLDLLDKDTEKAFVHVRRASTGFEALTNNLSAVKNIFGDTVIIERATLEDIMYYMKGGVHYV, MGSDKIHHHHHHMEQNRFKKETKTCSASWPRAPQSTLCATDRLELTYDVYTSAERQRRSRTATRLNLVFLHGSGMSKVVWEYYLPRLVAADAEGNYAIDKVLLIDQVNHGDSAVRNRGRLGTNFNWIDGARDVLKIATCELGSIDSHPALNVVIGHSMGGFQALACDVLQPNLFHLLILIEPVVITRKAIGAGRPGLPPDSPQIPENLYNSLRLKTCDHFANESEYVKYMRNGSFFTNAHSQILQNIIDFERTKASGDDEDGGPVRTKMEQAQNLLCYMNMQTFAPFLISNVKFVRKRTIHIVGARSNWCPPQNQLFLQKTLQNYHLDVIPGGSHLVNVEAPDLVIERINHHIHEFVLTSPLQSSHIPQLTLEERAVMFDRAFDSFKNEALVKTTKQKL, MGSDKIHHHHHHMESAIDKHLVCPRTLSRRVADDYQPPFPMYVARAAEDLSQVVMGYFGVQYRGADQRSVALAALRRIVADFDAPDGPGNHDLTQHTDNQGYDNLIAVGYWRDPDAYARWIASPAVAEWWASDARLADGIGYFREIVAPRAEQFETLYAFTNDFPGVGSIMDGVSGEIEEHGYWGSMRDRFPISQTDWMHADGELRIVAGDPARGGRVVVLAHDNIALIRSGQDWRAAEDDERRLYLDEIEPTLRSGMDFLRDNGVDVGCYSNRYVRSIDLDGNLLDESYNIGHWRSLDRLERWAESHPTHLRIFVTFFRVVTGLSKLRLYHEVSVFDAKHQVYEYVNCHPTTGMMRDAVAR, MGSDKIHHHHHHMETIKAIHTRHSVRAFKDDPIEPQLLTMIVTDAQQTPSWGNSQPWQVYIATGHALTNIKQHYATAAEQGIAEDADLAKVHRGDFSAFASQNMGHWVGTFRPVIDSDPTTYWDSRANLYRAPAIAYLVLDANPNSWSIYDLGAFSQTLMLAATARGVQSVPSYELVKYPAIVRNALGMPANKVVAMGIALGYEKPEKPLNQFRTDRVATPQVLHIIN, MGSDKIHHHHHHMEVAMEKIYYPRTIDSYLLEWKNERAHKPLLLRGARQVGKSSAVRQLGKTFKYFMEVNFERDKEIISVFTGNLKPKEITSRLAAFYGIPVVPGETLLFLDEIQACTPAIHSLWFFYEDYPELHVVAAGSLLEFALKKMAFFGVGRVRSLFMYPMSFDEFLAATGHAGWIEAKRNASPAEPLFEALHGKLVESFRNYLMVGGMPESVQNWVETEDYLKCQQVQDDIMLAYEDDFSKYEEKADPMLLRQTLRSVAQQIGGKFVYSNVQGNYRSEKIKSALELLKDAGLVRPAVHTAANGIPLGAEINEKFVKYIFLDSGLLLRLLGLENTGGTSEMSRLVLVGAASDLVNKGHITEMVAGLELLKYNTPVQRHDLYYWQNLSRGAQAEVDYVIVKDMRVVPLEVKAGTTGSMKSMYQFMEEKHLTYGIRTSLENFGKLEKADIIPLYALSNLYK, MGSDKIHHHHHHMEVDDVWDDTELIKMYDESLQEISKNETSAKITSRKFKGEDGKMYTWKVGGKCMAPYEENGEVTDYPATIDTIGGADNLEVGVTFIYYGGQAVVQMKDLWLNEEAIADAVKAENDLQKTKKTSTVNSVAHSNSKSTSSAPNTSMPFPSFAPPVPPNIIAMAPVNQKEAMNSMLMSWYMSGYHTGYYQALADQKNVQN, MGSDKIHHHHHHMEVVGRSRAKAIIETHLNDSLVYFSDHVRILKCNPYCTGVTYLKEHGVYQWIFQVNDPRENPITAVFFVTQNEEHLDSSRTVPAGPVSEEESFPDSAVSGRCIQWVNAPQVPDVPLKEKNTFVGQANTRICLYPLEDRRTEVHFETDITLDFELSFPLNLMPEGILKFMTEAVMSKIMQQATESMLCQVQSDLCCCTTAELDASGGKV, MGSDKIHHHHHHMEYVNIKLPYDKKQITAKIYKRNLAGILVSKSENYKNSLSEKELVEKSLDNPIASPKLEELVKGKKNIVLISSDHTRPVPSKIITPILLRRIRSVEPNANIIILVATGFHRPSTHEELVDKYGEEIVKRENIVMHVSTDDSAMVQIGTLPSGGPCIINKIAAEADLLIAEGFIESHFFAGFSGGRKSVLPGIASYKTIMANHCGEFINSNKARTGNIKCNPIHEDMVYAARTAGLKFILNVVLDGNKKIIGSFAGDVEKAHETGCDFVKDLARVKKVPCDIAVSTNGGYPLDQNIYQAVKGMTAAEATNKENGVIIMVAGCRDGHGGEGFYKNLANVKTPEEFLEKAIHTERQKTIPDQWTSQILARILSKHHVIMVSDLVDQKLICGMHMELVSNFEEALERAYKIEGKDAKVTVIPDGLSVIVE, MGSDKIHHHHHHMFGLPGKKSSAVLGVDVSSSSVKLLELSKHGDRYKVESYAVEPLPANAVVEKNITDVEAVGEVLKRVASKSRTSVKQVAVAVSGSAVITKVIQMDGGLNEFEMEDQIALEADQYIPYPLDEVAIDFEVQGPSESNPDQVDVLLAACRKENVDIREDALEIAGLTTKIVDVEAYALERAYSLIEPQLDSQGEELVVAIVDIGATMTTLSVLAEGKTVYTREQIFGGKQLTEEIQRRYGLSLEEAGLAKKQGGLPDDYNEEVLTPFREAVVQQVARALQFFFGASQYNAVDYVVLAGGTASIQGLTEMVEEKTGTPTLVANPFANMAVGSRVNASALSNDAPSLMIACGLAMRSFD
